Measurements taken from patent publication US20180017550.

Assays:
[1] = molecular target: Human casein kinase II (CK), cell-free expressed with C-terminal HSV epitope tag and polyhistidine tag
[2] = molecular target: human MDM2 (ubiquitin-protein ligase E3 MDM2), cell-free expressed with C-terminal HSV epitope tag and polyhistidine tag, Q00987
[3] = molecular target: human p53 oncoprotein (cellular tumor antigen p53), cell-free expressed from pETBlue-2 with C-terminal HSV epitope tag and polyhistidine tag, P04637
[4] = molecular target: human protein kinase A catalytic subunit alpha, cell-free expressed with C-terminal HSV epitope tag and polyhistidine tag, P17612

B1: human recombinant ZAP-70 tyrosine kinase (Invitrogen Corporation) (protein)
chain: MPDPAAHLPFFYGSISRAEAEEHLKLAGMADGLFLLRQCLRSLGGYVLSLVHDVRFHHFPIERQLNGTYAIAGGKAHCGPAELCEFYSRDPDGLPCNLRKPCNRPSGLEPQPGVFDCLRDAMVRDYVRQTWKLEGEALEQAIISQAPQVEKLIATTAHERMPWYHSSLTREEAERKLYSGAQTDGKFLLRPRKEQGTYALSLIYGKTVYHYLISQDKAGKYCIPEGTKFDTLWQLVEYLKLKADGLIYCLKEACPNSSASNASGAAAPTLPAHPSTLTHPQRRIDTLNSDGYTPEPARITSPDKPRPMPMDTSVYESPYSDPEELKDKKLFLKRDNLLIADIELGCGNFGSVRQGVYRMRKKQIDVAIKVLKQGTEKADTEEMMREAQIMHQLDNPYIVRLIGVCQAEALMLVMEMAGGGPLHKFLVGKREEIPVSNVAELLHQVSMGMKYLEEKNFVHRDLAARNVLLVNRHYAKISDFGLSKALGADDSYYTARSAGKWPLKWYAPECINFRKFSSRSDVWSYGVTMWEALSYGQKPYKKMKGPEVMAFIEQGKRMECPPECPPELYALMSDCWIYKWEDRPDFLTVEQRMRACYYSLASKVEGPPGSTQKAEAACA
- phosphorylation of photo-transferred protein on microarray, anti-phosphotyrosine (RC20) detection [1]: ZAP-70 does not phosphorylate CK
- phosphorylation of photo-transferred protein on microarray, anti-phosphotyrosine (RC20) detection [2]: Both kinases heavily phosphorylate the MDM protein
- phosphorylation of photo-transferred protein on microarray, anti-phosphotyrosine (RC20) detection [3]: p53 is not phosphorylated by either kinase
- phosphorylation of photo-transferred protein on microarray, anti-phosphotyrosine (RC20) detection [4]: phosphorylates PKA to a very slight, nearly undetectable degree
